Results reported in patent US20250115663A1 (CELLDEX THERAPEUTICS, published 2025).
Numbering of substitutions follows the chain as printed.

B1: anti-CD40 human monoclonal antibody 1B4 (antibody, human IgG2, V domains shown)
VH: EVQLLESGGGLVQPGGSLRLSCAASGFTFSSYAMTWVRQVPGKGLEWVSGITGSGANTFYTDSVKGRFTISRDNSNNSLYLQMNSLRADDTAVYYCAKRNGGSYYYYYGMDVWGQGTTVTVSS
VL: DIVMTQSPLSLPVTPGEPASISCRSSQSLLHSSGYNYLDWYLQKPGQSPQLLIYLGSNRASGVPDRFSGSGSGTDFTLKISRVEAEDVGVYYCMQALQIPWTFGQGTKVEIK
notes: Human IgG2
B2: anti-CD40 human monoclonal antibody 3B6 (antibody, human IgG2, V domains shown)
VH: EVQLLESGGGLVQPGGSLRLSCAASGFTFSSYAMSWVRQAPGKGLEWVSGITGTGGSTYYADSVKGRFTISRDNSKNTLYVQMNSLRAEDTAVYYCAKRAGGSFYYYYGMDVWGQGTTVTVSS
VL: DIVMTQSPLSLPVTPGEPASISCRSSQSLLHSTGYNYLDWYLQKPGQSPQLLIYLGSNRASGVPDRFNGSGSGTDFTLKISRVEAEDFGVYYCMQALQTPWTFGHGTKVEIK
notes: Human IgG2
B3: anti-CD40 human monoclonal antibody 1B5-NK (antibody, human IgG2, V domains shown)
VH: QVQLVESGGGVVQPGRSLRLSCAASGFTFSSFGMHWVRQAPGKGLEWVTLIWFDGSSKYYADSVKGRFTISRDNSKNTLYLQMNSLRAEDTAVYYCVRGFAAVAGWYFDFWGRGTLVTVSS
VL: DIQMTQSPSSLSASVGDRVTITCRASQGVRKYLAWYQQKPGKVPKLLIYAASTLQSGVPSRFSGSGSGTDFTLTISSLQPEDVATYYCQKYFSAPYTFGQGTKLEIK
notes: Human IgG2
B4: F(ab')2 fragment of antibody 3C3 (other)
VH: QVQLVESGGGVVQPGRSLRLSCAGSGFIFSRYGMYWVRQAPGKGLEWVAVIWYDGSYKYYADSVKGRFTISRDNSKNTLYLQMNSLRAEDTAVYYCARESPWYYFDYWGQGTLVTVSS
VL: B3 VL with V29I, R30S, K31N, F92K, Y96F, Q100P, L104V, E105D
notes: F(ab')2 version of the IgG2 antibody, lacking the Fc domain; also called 3C3 F(ab')2
B5: anti-CD40 human monoclonal antibody 6H6 (antibody, human IgG2, V domains shown)
VH: QVQLVESGGGVVQPGRSLRFSCAASGFTLSSYGMHWVRQAPGKGLEWVAVIWDDGSNKYYADSVKGRFTISRDNSKNTLYLQMNSLRAEDTAVYYCARAGGSGRYYNYFDYWGQGTLVTVSS
VL: EIVMTQSPATLSVSPGERATLSCRASQSVRSNLAWYQQKPGQAPRLLIYGASTRATGIPARFSGSGSGTDFTLTISSLQSEDFAVYYCQQHNNWLTFGGGTKVEIK
notes: Human IgG2
B6: F(ab')2 fragment of antibody 3G5 (other)
VH: B5 VH with R16K, F20L, L29F, Y32N, M34I, D53S, Y59F, G100S, R104S, Y108F
VL: B5 VL with D70E, S76N, N93K, L95I, G99Q, K102R, V103L
notes: F(ab')2 version of the IgG2 antibody, lacking the Fc domain; also called 3G5 F(ab')2

Tests used:
[1] = target: T1, soluble human CD40-MsIgG2a (human, UniProt P25942); assay: BLI (Octet QKe), antibody captured on anti-human Fc (AHC) biosensors, analyte soluble human CD40-MsIgG2a 3.13 to 0.098 nM, 25 C, 1:1 fit
T1 construct: soluble, fused to mouse IgG2a; also called recombinant human CD40-msG2a chimeric protein; CD40-MsIgG2a (Celldex, 60 kD by SDS-PAGE)
Method: (§1) Purified antibodies from Example 1 were captured on Anti-Human Fc Capture (AHC) biosensors (Fortebio Product No. 18-5060). Each antibody was prepared in dilution buffer (10mMPO4+150 mM NaCl+1 mg/mL BSA+0.5% Tween 20, pH 7.2) to 0.5 μg/mL and loaded on freshly hydrated AHC biosensors for 35-50 sec at 25° C. and 1000 rpm plate shake speed to achieve a target response of 0.2 nm. Low levels of ligand were captured to limit any effects of mass transport of analyte on kinetic parameters. For one assay, eight biosensors were loaded with the same antibody.
(§2) Binding was determined by exposing six of the antibody loaded biosensors to analyte: soluble human CD40-MsIgG2a (Celldex, 60 kD by SDS-PAGE). Affinity measurements were determined using 2-fold serial dilutions of analyte ranging from 3.13 to 0.098 nM in dilution buffer at 25° C. and 1000 rpm plate shake speed. Association of the antibody loaded biosensors in analyte wells was carried out for 1200 seconds, the biosensors were then moved to dilution buffer wells for 2.5 hrs (9000 sec) for dissociation measurements.
(§3) Fortebio's Data Analysis Software version 8.2.0.7 (Pall ForteBio, Menlo Park, CA) was used in each case to derive kinetic parameters from the concentration series of analyte in dilution buffer binding to captured antibody. The association and dissociation curves were fitted to a 1:1 binding model using the data analysis software according to the manufacturer's guidelines.

[2] = target: T1, soluble human CD40-MsIgG2a; assay: BLI (Octet QKe), antibody captured on anti-human Fc (AHC) biosensors, analyte soluble human CD40-MsIgG2a 3.13 to 0.098 nM, 25 C, 1:1 fit; column head kdis(1/s)
Method: as §1, §2, §3

[3] = target: T2, recombinant human CD40-Fc (human, UniProt P25942 21-193); assay: ELISA on coated recombinant human CD40-Fc, detection anti-human IgG F(ab')2-HRP, OD 450-650 (the y axis is labelled 'Median Fluorescence')
T2 construct: also called soluble recombinant human CD40/Fc chimera from R&D Systems; not shown: The antibody Fc domain of the R&D Systems chimera and any linker to it
Method: (§4) Microtiter plates were coated with recombinant human CD40-Fc in PBS, and then blocked with 5% bovine serum albumin in PBS. Protein A purified human mAbs from Example 1 and an isotype control were added at various concentrations and incubated at 37° C. The plates were washed with PBS/Tween and then incubated with a goat-anti-human IgG F(ab′)2-specific polyclonal reagent conjugated to horseradish peroxidase at 37° C. After washing, the plates were developed with HRP substrate, and analyzed at OD 450-650 using a microtiter plate reader.

[4] = target: T2, recombinant human CD40-Fc; assay: ELISA on coated recombinant human CD40-Fc, detection anti-human IgG F(ab')2-HRP, OD 450-650
Method: as §4, with “Protein A purified human mAbs from Example 1 and an isotype control were added at various concentrations and incubated at 37° C.” left out

T1 sequence (P25942 21-193 limits assumed): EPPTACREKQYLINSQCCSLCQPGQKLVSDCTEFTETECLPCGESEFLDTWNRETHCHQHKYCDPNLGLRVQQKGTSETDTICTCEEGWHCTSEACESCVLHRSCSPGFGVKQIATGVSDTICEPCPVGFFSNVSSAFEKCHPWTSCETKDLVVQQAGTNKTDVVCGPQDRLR
T2 sequence (P25942 21-193 limits assumed, form in doubt): as the sequence (P25942 21-193 limits assumed) above

Binder | Kd [1] | kon [1] | koff [2] | EC50 (read off the curve) [3] | EC50 (read off the curve) [4]
B1 | 10.5 pM | 832000 M⁻¹ s⁻¹ | 8.76e-06 s⁻¹ |  | 
B2 | 7.9 pM | 782000 M⁻¹ s⁻¹ | 6.14e-06 s⁻¹ |  | 
B3 |  |  |  | ~0.09 µg/mL | 
B4 |  |  |  |  | ~400 pM
B5 | 2.8 pM | 905000 M⁻¹ s⁻¹ | 2.49e-06 s⁻¹ |  | 
B6 |  |  |  |  | ~300 pM
